Test system: lung-resident ILCs
Experiment: SMART-Seq2 plate-based scRNA-seq of lung-resident ILCs from PBS-, IL-25- or IL-33-treated mice, differential gene expression by logistic regression (Tables 3, 4)
Assay type: in vivo, mouse
Excerpt: Mice and in vivo ILC activation. C57B1/6J mice were purchased from the Jackson Laboratory. Nmur1-LacZ reporter mice with a LacZ cassette knocked into the Nmur1 locus were rederived from Nmur1^tm1.1(KOMP)Vlcg sperm obtained from the trans-NIH Knock-Out Mouse Project (KOMP) Repository. NMU-deficient mice (NMU-KO) were rederived from B6.129S2-Nmu<tm1Mko> embryos from the RIKEN BioResource Center. For experiments with Nmur1-LacZ (Nmur1-KO) and NMU-KO mice, littermates that were either homozygous or heterozygous for the wild type allele were used as controls. Mice were housed under specific-pathogen-free conditions. For experiments, mice were matched for sex and age, and most mice were 6-10 weeks old. Where indicated, mice were anesthetized with Isoflurane and treated intranasally with the indicated stimuli (500 ng IL-25, 500 ng IL-33, or 20 μg Neuromedin U) daily for three consecutive days. The total administered volume was 20 μl for all conditions. Mice were randomly assigned to treatment groups after matching for sex and age. […] Mice were treated intranasally with 10 μg HDM on day 0, 7, 8, and 9, prior to sacrifice on day 10. All experiments were conducted in accordance with animal protocols approved by the Harvard Medical Area Standing Committee on Animals or BWH IACUC.
Fluorescence-activated cell sorting of innate lymphoid cells. After dissociation, single cell suspensions were incubated with CD90.2 MicroBeads (Miltenyi Biotec) on ice and enriched for CD90.2^+ cells by magnetic separation using LS columns according to the manufacturer's protocol. CD90.2^+ lung cells were then stained on ice with antibodies for sorting. ILCs were defined as 7AAD^− CD45^+ CD90.2^+ CD127^+ Lineage (CD11b, CD11c, CD19, NK1.1, […], CD4, CD8a, TCRβ, TCRγδ)^− cells and sorted on a BD FACS Aria (BD Biosciences).
For full-length scRNA-Seq, single ILCs were sorted into 96-well plates containing 5 ul TCL Buffer (QIAGEN) with 1% 2-Mercaptoethanol, centrifuged and frozen at −80° C. SMART-Seq2 protocol was carried out as previously described^23 with minor modifications in the reverse transcription step. cDNA was amplified with 22 cycles and fragmented with one-eighth of the standard Illumina NexteraXT reaction volume. Single-cell libraries were pooled and paired-end sequenced (38 bp×2) with a 75 cycle Nextseq 500 high output V2 kit.
Analysis of SMART-Seq2 plate-based scRNA-Seq data. Reads were aligned to mm10 using Kallisto (Bray, N. L., Pimentel, H., Meisted, P. & Pachter, L. Near-optimal probabilistic RNA-seq quantification. Nat Biotechnol 134, 525-527, doi:10.1038/nbt.3519 (2016)) quant, version 0.42.3. The R package tximport (Soneson, C., Love, M. I. & Robinson, M. D. Differential analyses for RNA-seq: transcript-level estimates improve gene-level inferences [version 2; referees: 2 approved]. F1000Research 4, doi:10.12688/f1000research.7563.2 (2016)), version 1.2.0, was used to convert the output to gene counts and traditional TPM values. Because of the variability in read counts per cell across plates, even from the same condition, as well as in the number of genes per cell across conditions, QC was performed for each of eight plates individually in order to remove cells that were outliers with respect to either measure. Out of 752 cells, 606 cells met QC criteria (234 from control, 152 from IL-25 treated mice, and 220 from IL-33 treated mice), and the number of genes per cell in this set ranged from 1,625 to 6,375. Genes that were not expressed with log(TPM)>2.5 in at least two cells were removed from further analysis. Subsequent analysis proceeded analogously to the droplet-based RNA-seq analysis, with parameter settings that reflected both the wider dynamic range of expression and much smaller cell numbers. The minimum ILC signature score required in ILC type assignment was 0.3. Variable genes were identified by running MeanVarPlot with x.low.cutoff=0.1, y.cutoff=1.5, and x.high.cutoff=10, resulting in a set of 519 genes. […]

B1: IL25 (protein, UniProt Q8VHH8 17-169, looked up)
Interleukin-25: VSLRIQEGCSHLPSCCPSKEQEPPEEWLKWSSASVSPPEPLSHTHHAESCRASKDGPLNSRAISPWSYELDRDLNRVPQDLYHARCLCPHCVSLQTGSHMDPLGNSVPLYHNQTVFYRRPCHGEEGTHRRYCLERRLYRVSLACVCVRPRVMA
Med16 expression coeff: −0.61 | Mfsd1 expression coeff: 1.25 | Mgat1 expression coeff: 1.24 | Mgat5 expression coeff: 1.02 | Mier3 expression coeff: −0.901 | Mkl2 expression coeff: −1.12 | Mlec expression coeff: 0.715 | Morc3 expression coeff: 0.662 | Mov10 expression coeff: 1.08 | Mplkip expression coeff: −0.607 | Mrp63 expression coeff: 1.09 | Mrpl40 expression coeff: −0.837 | Mrpl52 expression coeff: 0.158 | Mrpl53 expression coeff: −1.87 | Mrps18a expression coeff: −1.24 | Ms4a4b expression coeff: 3.49 | Ms4a6b expression coeff: 3.22 | Mtfmt expression coeff: −2.15 | Mxd1 expression coeff: 0.448 | Mybbp1a expression coeff: −0.514 | Myg1 expression coeff: −1.33 | Myo1f expression coeff: 0.897 | Myo1g expression coeff: 0.257 | Naa60 expression coeff: 0.241 | Nbn expression coeff: −0.499 | Ndufaf3 expression coeff: 1.45 | Neu3 expression coeff: −2.64 | Nfil3 expression coeff: 2.04 | Nipal1 expression coeff: 1.61 | Nlrc5 expression coeff: 0.93 | Nol6 expression coeff: −1.65 | Nol9 expression coeff: −0.775 | Nop56 expression coeff: −0.619 | Npc2 expression coeff: 0.143 | Npnt expression coeff: 0.056 | Nrip1 expression coeff: 0.668 | Nsmaf expression coeff: 1.41 | Oas1a expression coeff: 0.0294 | Ogfr expression coeff: 0.578 | Omd expression coeff: −1.12 | Parp3 expression coeff: 0.335 | Parp10 expression coeff: 0.371 | Parp14 expression coeff: 0.934 | Paxip1 expression coeff: −1.15 | Pdcd1 expression coeff: 1.04 | Pde4b expression coeff: 0.735 | Per1 expression coeff: −0.785 | Pfas expression coeff: −0.546 | Phc3 expression coeff: 0.476 | Phf11a expression coeff: 1.52 | Phf11b expression coeff: 1.38 | Picalm expression coeff: 1.79 | Pigv expression coeff: −2.73 | Pin4 expression coeff: 0.928 | Plac8 expression coeff: 0.268 | Plekha5 expression coeff: −1.01 | Plxdc2 expression coeff: −0.906 | Pml expression coeff: 1.04 | Ppif expression coeff: −1.14 | Ppp1r15a expression coeff: 0.186 | Pydc4 expression coeff: 1.52 | Pyhin1 expression coeff: 0.623 | Rab7l1 expression coeff: 1.18 | Rab8b expression coeff: 1.5 | Rab33b expression coeff: −1.3 | Rdh1 expression coeff: −2.49 | Rdh13 expression coeff: −1.37 | Rilpl2 expression coeff: 1.4 | Rnf125 expression coeff: 1.65 | Rtp4 expression coeff: 0.866 | Samd9l expression coeff: 0.773 | Sbno2 expression coeff: 1.09 | Sdc4 expression coeff: 0.206 | Sdccag3 expression coeff: 0.312 | Sema4a expression coeff: −0.348 | Sema4d expression coeff: 0.548 | Sesn3 expression coeff: 0.328 | Shank2 expression coeff: −3.19 | Sipa1 expression coeff: 1.56 | Slc25a24 expression coeff: 0.607 | Slc44a2 expression coeff: 0.294 | Slfn2 expression coeff: 0.267 | Smn1 expression coeff: −1.53 | Sntb1 expression coeff: 1.29 | Soat1 expression coeff: 0.339 | Socs1 expression coeff: −1.36 | Socs2 expression coeff: −0.923 | Socs3 expression coeff: 1.02 | Sp100 expression coeff: 0.451 | Sptssa expression coeff: −0.974 | Ssr3 expression coeff: 0.609 | St3gal6 expression coeff: −0.764 | Stab1 expression coeff: 1.24 | Stat1 expression coeff: 1.88 | Syt11 expression coeff: 0.291 | Taf1d expression coeff: 1.28 | Tango6 expression coeff: −1.32 | Tap1 expression coeff: 0.561 | Tap2 expression coeff: 0.406 | Tet3 expression coeff: 1.62 | Tmem33 expression coeff: 1.18 | Tmem176a expression coeff: −0.146 | Tmem176b expression coeff: −0.422 | Tmem209 expression coeff: −0.847 | Tmem229b expression coeff: 0.199 | Tnfrsf18 expression coeff: −1.25 | Tnfsf10 expression coeff: −1.18 | Tpm4 expression coeff: 0.311 | Tradd expression coeff: 0.964 | Trafd1 expression coeff: 0.993 | Trim12c expression coeff: 0.974 | Trim30a expression coeff: 1.17 | Trim34a expression coeff: 0.632 | Trim30d expression coeff: 0.527 | Trip13 expression coeff: −1.91 | Trp53inp1 expression coeff: 1.28 | Ttc19 expression coeff: 0.891 | Ttc39b expression coeff: 0.546 | Ube2h expression coeff: 0.767 | Usp18 expression coeff: 1.1 | Usp36 expression coeff: −0.645 | Vdr expression coeff: −0.748 | Vmp1 expression coeff: 1.49 | Xrcc3 expression coeff: −1.4 | Zbp1 expression coeff: 0.971 | Zc3h12a expression coeff: −1.14 | Zcchc10 expression coeff: −1.82 | Zfand6 expression coeff: 0.659 | Zfc3h1 expression coeff: 0.466 | Zfp110 expression coeff: −0.396 | Zfp825 expression coeff: −1.4
